From article PMC6356446

Target: c-Met (human (endogenous in HCC413)), P08581
Experiment: flow cytometry on cells; HCC413 cells treated with EGF-FITC or HGF-FITC alone or with unlabeled LZ-8 for 15 min; fixed; relative mean fluorescence intensity
Settings: remark: other sources report otherwise

Sequence of c-Met (human (endogenous in HCC413)), P08581 (P08581 25-1390): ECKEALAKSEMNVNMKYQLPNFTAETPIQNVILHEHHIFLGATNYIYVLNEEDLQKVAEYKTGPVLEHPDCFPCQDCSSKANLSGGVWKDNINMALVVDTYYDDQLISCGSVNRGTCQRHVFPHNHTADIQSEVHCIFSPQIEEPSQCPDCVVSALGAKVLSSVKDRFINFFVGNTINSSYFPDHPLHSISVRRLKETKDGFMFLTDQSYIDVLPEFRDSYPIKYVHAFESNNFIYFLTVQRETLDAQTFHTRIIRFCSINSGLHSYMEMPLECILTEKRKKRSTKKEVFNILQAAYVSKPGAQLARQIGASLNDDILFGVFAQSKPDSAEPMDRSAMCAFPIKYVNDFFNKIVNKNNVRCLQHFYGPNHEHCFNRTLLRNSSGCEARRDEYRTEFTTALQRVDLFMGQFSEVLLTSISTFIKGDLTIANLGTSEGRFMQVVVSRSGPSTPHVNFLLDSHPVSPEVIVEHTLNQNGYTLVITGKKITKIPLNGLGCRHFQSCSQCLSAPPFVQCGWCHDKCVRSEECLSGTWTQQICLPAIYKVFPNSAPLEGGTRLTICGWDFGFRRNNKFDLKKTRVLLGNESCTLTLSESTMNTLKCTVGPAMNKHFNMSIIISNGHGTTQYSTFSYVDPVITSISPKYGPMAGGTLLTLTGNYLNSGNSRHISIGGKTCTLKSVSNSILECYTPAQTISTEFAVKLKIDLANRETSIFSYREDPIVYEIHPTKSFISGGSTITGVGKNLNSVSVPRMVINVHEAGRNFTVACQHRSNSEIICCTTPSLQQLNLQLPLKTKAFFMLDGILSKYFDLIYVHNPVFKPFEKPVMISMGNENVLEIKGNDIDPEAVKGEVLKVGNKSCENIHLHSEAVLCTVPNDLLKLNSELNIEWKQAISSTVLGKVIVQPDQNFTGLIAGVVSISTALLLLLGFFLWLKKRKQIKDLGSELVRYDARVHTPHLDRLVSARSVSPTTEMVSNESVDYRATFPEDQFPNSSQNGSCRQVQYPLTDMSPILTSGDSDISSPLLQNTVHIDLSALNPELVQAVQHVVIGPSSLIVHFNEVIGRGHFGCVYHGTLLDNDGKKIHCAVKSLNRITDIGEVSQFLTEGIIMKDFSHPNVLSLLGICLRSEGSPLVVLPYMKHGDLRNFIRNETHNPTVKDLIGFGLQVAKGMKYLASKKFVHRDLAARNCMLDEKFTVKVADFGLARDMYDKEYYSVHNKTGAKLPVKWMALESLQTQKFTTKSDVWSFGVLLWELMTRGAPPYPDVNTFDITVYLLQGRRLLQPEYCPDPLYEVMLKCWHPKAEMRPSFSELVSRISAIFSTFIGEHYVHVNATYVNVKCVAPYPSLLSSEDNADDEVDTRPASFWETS

percent suppression of HGF-FITC binding on the cell surface: 30%
B1: Ling-Zhi-8, P14945 1-111 (natural protein)
chain: MSDTALIFRLAWDVKKLSFDYTPNWGRGNPNNFIDTVTFPKVLTDKAYTYRVAVSGRNLGVKPSYAVESDGSQKVNFLEYNSGYGIADTNTIQVFVVDPDTNNDFIIAQWN
modifications: here or on the partner: N-glycans (sites not given)
